Experiment [1] has as its target wheat germ agglutinin (Triticum vulgaris, WGA)-agarose CL-4B (Triticum vulgaris) (UniProt P10968). Briefly: WGA-agarose lectin affinity chromatography after neuraminidase digestion, eluted with 0.1 M GlcNAc.
Experiment [2] has the same target. Briefly: WGA-agarose lectin affinity chromatography after neuraminidase digestion of the enzyme.
For experiment [3] the target is unchanged. Briefly: WGA-agarose lectin affinity chromatography after neuraminidase digestion, eluted with 0.5 M GlcNAc.
Experiment [4] deals with concanavalin A (Canavalia ensiformis, ConA)-sepharose 4B (Canavalia ensiformis) (UniProt P02866). Briefly: ConA-sepharose lectin affinity chromatography, enzyme activity of fractions.
The target is the same in experiment [5]. Briefly: ConA-sepharose lectin affinity chromatography, eluted with 0.5 M alpha-methyl-D-mannopyranoside.
In experiment [6] the target is wheat germ agglutinin (Triticum vulgaris, WGA)-agarose CL-4B (Triticum vulgaris) (UniProt P10968). The experiment can be described thus: WGA-agarose lectin affinity chromatography, enzyme activity of fractions.
The target in experiment [7] is concanavalin A (Canavalia ensiformis, ConA)-sepharose 4B (Canavalia ensiformis) (UniProt P02866). The experiment can be described thus: ConA-sepharose lectin affinity chromatography, eluted with 0.01 M alpha-methyl-D-mannopyranoside.
For experiment [8], the target named is wheat germ agglutinin (Triticum vulgaris, WGA)-agarose CL-4B (Triticum vulgaris) (UniProt P10968). Briefly: WGA-agarose lectin affinity chromatography, eluted with 0.5 M GlcNAc.
Experiment [9] has the same target. The experiment can be described thus: WGA-agarose lectin affinity chromatography, eluted with 0.1 M GlcNAc.
Experiment [10] has the same target. The experiment can be described thus: WGA-agarose lectin affinity chromatography.

UniProt P10968, sequence (P10968 27-197): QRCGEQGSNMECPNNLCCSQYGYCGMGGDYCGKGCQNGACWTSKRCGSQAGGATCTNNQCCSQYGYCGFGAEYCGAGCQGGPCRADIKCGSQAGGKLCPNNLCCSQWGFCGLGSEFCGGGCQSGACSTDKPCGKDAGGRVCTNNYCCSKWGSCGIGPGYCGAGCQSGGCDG

For “CD8-TNSALP after neuraminidase digestion (from UniProt P05186 18-505) (enzyme)”, the percent of relative activity in Weakly Bound fraction in experiment [1] came to 4%. Moreover, in [2], the percent of relative activity in Unbound fraction was 4%. Further, the percent of relative activity in Strongly Bound fraction in [3] was determined as 92%.
For the substance “CD6-TNSALP (human TNSALP anchorless at the C-terminal tagged with a stretch of six L-Asp) (from UniProt P05186 18-505) (enzyme)”, the percent of relative activity in Unbound fraction in experiment [4] stood at 4%; in [6], 3%. In addition, the figures for the percent of relative activity in Strongly Bound fraction in experiment [5] and in experiment [8] were 36% and 65%, respectively. Further, the percent of relative activity in Weakly Bound fraction worked out at 60% in experiment [7] and 32% in experiment [9].
For “anchorless rhTNSALP after neuraminidase digestion (from UniProt P05186 18-505) (enzyme)”, the percent of relative activity in Weakly Bound fraction in experiment [1] came to 9%. In experiment [2], this substance showed a percent of relative activity in Unbound fraction of 0%. The substance also registered a percent of relative activity in Strongly Bound fraction in experiment [3] of 91%.
In the same order, the values of “CD6-TNSALP after neuraminidase digestion (from UniProt P05186 18-505) (enzyme)” are 11%, 2% and 86%.
With “CD8-TNSALP (human TNSALP anchorless at the C-terminal tagged with a stretch of eight L-Asp) (from UniProt P05186 18-505) (enzyme)”, the percent of relative activity in Unbound fraction in experiment [4] turned out to be 2%; in experiment [6] it was 1%. Besides, the percent of relative activity in Strongly Bound fraction in experiment [5] turned out to be 39%; in experiment [8], 76%. Further, the percent of relative activity in Weakly Bound fraction in experiment [7] turned out to be 59%; in experiment [9], 23%.
“anchorless recombinant human TNSALP (human tissue-nonspecific alkaline phosphatase anchorless at the C-terminal) (from UniProt P05186 18-505) (enzyme)”: the figures for the percent of relative activity in Unbound fraction in experiment [4] and in [6] were 3% and 0%, respectively. Further, the percent of relative activity in Strongly Bound fraction was determined as 38% in experiment [5] and 33% in experiment [8]. Besides, the percent of relative activity in Weakly Bound fraction in [7] was 59%; in experiment [9] it was 66%. Besides, the percent strongly bound to the WGA column in experiment [10] is 34%.

These data come from patent US20090238814A1.
